# Experimental data: the supplement of paper PMC10065799, “High-throughput profiling of sequence recognition by tyrosine kinases and SH2 domains using bacterial peptide display” (eLife, 2023)
# Legend:
# EPHB2 = EPHB2 (UniProt P29323); assay: phosphorylation enrichment, bacterial display (enrichment ratio); higher = better substrate or ligand; peptides without Tyr show the background
# Fer (mouse) = assay: as above
# EPHB1 = EPHB1 (UniProt P54762); assay: as above
# Fes = Fes (UniProt P07332); assay: as above
# Fyn = Fyn (UniProt P06241); assay: as above
# Jak2 = Jak2 (UniProt O60674); assay: as above
# AncSZ = assay: as above
# MERTK = MERTK (UniProt Q12866); assay: as above
# FGFR3 = FGFR3 (UniProt P22607); assay: as above
# c-Abl (mouse) = assay: as above
# FGFR1 = FGFR1 (UniProt P11362); assay: as above
# Hck = Hck (UniProt P08631); assay: as above
# c-Src = assay: as above
# SHP2-C SH2 = assay: SH2 binding enrichment of the phosphorylated peptide, bacterial display (enrichment ratio); higher = better substrate or ligand; peptides without Tyr show the background
# c-Src SH2 = assay: as above
# Grb2 SH2 = Grb2 SH2 (UniProt P62993); assay: as above
# 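For SH2 binding enrichment of the phosphorylated peptide, bacterial display in this document: peptide library displayed on the E. coli surface as eCPX fusions, selected cells deep-sequenced, score is each peptide's frequency after selection divided by its frequency in the input.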
# 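For phosphorylation enrichment, bacterial display in this document: 11-residue human phosphosite peptides and single-mutation variants displayed on the E. coli surface, counted by deep sequencing, each peptide's frequency after selection divided by its frequency in the unselected input library; frequency after pTyr selection over input frequency; kinase dosed for 20-30% of maximal phosphorylation in three min.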
# Chain of EPHB1 (P54762 whole entry, looked up): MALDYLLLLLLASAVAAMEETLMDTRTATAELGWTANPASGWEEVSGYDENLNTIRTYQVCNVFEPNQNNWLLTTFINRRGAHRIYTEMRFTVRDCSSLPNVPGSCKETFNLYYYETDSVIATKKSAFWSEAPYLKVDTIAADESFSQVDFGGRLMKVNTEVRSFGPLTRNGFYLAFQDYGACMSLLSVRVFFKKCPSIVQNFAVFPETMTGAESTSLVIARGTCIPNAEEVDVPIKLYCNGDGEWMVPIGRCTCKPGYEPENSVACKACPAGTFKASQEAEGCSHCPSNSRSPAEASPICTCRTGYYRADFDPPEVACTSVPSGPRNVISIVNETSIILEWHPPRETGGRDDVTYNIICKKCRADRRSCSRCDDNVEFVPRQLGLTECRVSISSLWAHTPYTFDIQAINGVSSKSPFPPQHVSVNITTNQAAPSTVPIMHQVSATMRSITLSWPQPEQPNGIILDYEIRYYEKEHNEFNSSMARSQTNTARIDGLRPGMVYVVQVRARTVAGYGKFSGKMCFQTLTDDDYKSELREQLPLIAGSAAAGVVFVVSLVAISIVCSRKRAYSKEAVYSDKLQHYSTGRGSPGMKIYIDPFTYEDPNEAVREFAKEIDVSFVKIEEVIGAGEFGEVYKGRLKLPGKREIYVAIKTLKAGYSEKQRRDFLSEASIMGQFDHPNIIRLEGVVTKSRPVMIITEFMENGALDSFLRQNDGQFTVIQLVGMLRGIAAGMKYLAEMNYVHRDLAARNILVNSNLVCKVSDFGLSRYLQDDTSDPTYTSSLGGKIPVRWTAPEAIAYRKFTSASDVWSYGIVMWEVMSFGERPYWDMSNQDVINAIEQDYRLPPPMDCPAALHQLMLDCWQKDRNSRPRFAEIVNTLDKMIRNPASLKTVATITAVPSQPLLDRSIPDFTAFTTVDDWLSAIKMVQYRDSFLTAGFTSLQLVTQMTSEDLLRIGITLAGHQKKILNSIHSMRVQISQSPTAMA
# Chain of Jak2 (O60674 whole entry, looked up): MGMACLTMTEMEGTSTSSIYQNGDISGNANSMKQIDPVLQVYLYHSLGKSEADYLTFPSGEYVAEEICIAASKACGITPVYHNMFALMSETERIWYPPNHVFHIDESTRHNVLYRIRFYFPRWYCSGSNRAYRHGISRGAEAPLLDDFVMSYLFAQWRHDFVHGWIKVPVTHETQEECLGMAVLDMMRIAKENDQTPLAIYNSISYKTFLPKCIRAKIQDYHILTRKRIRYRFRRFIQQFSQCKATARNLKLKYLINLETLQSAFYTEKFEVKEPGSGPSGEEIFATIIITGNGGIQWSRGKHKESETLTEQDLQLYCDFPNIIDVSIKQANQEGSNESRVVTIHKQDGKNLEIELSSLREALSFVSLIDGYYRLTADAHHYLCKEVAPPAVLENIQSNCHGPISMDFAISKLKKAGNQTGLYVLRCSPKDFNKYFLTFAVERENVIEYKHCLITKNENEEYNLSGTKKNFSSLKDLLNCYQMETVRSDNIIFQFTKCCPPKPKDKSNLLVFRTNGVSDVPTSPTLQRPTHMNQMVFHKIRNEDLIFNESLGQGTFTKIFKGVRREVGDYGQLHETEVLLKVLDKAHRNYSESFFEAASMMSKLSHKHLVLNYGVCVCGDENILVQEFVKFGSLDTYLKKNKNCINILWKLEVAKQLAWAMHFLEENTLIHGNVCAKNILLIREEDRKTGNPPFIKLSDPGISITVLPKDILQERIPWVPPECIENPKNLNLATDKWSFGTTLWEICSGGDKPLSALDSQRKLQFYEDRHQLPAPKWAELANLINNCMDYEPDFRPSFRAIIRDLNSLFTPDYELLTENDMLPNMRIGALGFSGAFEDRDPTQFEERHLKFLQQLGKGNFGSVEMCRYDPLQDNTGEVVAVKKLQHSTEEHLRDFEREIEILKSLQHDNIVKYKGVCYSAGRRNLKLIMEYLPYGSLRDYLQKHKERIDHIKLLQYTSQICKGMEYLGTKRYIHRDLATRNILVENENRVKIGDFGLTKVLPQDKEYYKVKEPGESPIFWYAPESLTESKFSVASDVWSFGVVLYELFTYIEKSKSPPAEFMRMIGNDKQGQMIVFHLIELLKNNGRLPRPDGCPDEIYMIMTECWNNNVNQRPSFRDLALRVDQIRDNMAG
# Chain of FGFR1 (P11362 whole entry, looked up): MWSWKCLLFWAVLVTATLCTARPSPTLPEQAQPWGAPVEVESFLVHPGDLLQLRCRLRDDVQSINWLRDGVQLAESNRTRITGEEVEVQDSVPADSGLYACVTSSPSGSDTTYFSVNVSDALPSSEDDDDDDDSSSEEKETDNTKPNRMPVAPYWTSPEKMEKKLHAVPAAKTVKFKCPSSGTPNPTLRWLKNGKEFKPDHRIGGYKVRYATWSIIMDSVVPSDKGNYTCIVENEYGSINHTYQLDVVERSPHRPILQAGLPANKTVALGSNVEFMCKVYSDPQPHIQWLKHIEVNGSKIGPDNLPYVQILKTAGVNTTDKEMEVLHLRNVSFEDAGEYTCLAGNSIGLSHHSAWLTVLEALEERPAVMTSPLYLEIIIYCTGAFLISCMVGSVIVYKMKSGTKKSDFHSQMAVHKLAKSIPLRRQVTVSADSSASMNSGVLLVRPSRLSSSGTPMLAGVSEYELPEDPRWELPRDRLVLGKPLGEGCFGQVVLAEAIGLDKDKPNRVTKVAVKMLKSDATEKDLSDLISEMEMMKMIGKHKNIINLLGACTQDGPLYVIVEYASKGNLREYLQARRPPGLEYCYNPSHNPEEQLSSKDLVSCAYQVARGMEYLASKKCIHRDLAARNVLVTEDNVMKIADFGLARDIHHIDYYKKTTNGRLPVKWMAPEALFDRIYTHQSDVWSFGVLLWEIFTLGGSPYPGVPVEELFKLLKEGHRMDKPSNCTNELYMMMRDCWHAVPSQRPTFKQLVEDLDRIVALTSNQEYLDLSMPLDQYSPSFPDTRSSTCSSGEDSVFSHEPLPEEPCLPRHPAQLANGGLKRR
# Chain of EPHB2 (P29323 whole entry, looked up): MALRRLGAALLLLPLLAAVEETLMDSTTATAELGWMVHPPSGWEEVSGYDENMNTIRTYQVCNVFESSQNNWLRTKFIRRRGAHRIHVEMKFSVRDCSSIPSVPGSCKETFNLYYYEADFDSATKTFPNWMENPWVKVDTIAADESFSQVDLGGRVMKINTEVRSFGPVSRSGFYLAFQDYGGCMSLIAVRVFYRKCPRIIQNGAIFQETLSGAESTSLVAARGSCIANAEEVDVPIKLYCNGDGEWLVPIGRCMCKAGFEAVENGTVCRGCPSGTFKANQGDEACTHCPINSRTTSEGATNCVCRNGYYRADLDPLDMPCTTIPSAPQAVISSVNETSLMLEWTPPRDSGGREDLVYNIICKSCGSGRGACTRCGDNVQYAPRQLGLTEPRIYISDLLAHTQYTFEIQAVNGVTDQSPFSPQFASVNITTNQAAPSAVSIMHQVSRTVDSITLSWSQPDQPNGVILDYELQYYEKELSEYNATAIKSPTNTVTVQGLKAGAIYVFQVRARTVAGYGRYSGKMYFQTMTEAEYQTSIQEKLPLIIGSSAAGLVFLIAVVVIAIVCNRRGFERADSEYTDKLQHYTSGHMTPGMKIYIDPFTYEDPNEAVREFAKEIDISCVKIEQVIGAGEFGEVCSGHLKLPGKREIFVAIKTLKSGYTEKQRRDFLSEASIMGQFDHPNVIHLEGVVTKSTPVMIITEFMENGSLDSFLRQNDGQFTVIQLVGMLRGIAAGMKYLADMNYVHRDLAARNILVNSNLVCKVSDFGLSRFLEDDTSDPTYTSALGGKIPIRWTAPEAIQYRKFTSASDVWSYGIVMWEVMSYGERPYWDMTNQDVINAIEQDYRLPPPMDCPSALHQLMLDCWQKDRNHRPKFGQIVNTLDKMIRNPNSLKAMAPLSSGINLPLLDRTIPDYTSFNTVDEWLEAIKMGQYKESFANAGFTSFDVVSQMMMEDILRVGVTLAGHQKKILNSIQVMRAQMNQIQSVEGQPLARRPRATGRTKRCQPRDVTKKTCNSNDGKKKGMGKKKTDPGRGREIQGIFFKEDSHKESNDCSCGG
# Chain of Fes (P07332 whole entry, looked up): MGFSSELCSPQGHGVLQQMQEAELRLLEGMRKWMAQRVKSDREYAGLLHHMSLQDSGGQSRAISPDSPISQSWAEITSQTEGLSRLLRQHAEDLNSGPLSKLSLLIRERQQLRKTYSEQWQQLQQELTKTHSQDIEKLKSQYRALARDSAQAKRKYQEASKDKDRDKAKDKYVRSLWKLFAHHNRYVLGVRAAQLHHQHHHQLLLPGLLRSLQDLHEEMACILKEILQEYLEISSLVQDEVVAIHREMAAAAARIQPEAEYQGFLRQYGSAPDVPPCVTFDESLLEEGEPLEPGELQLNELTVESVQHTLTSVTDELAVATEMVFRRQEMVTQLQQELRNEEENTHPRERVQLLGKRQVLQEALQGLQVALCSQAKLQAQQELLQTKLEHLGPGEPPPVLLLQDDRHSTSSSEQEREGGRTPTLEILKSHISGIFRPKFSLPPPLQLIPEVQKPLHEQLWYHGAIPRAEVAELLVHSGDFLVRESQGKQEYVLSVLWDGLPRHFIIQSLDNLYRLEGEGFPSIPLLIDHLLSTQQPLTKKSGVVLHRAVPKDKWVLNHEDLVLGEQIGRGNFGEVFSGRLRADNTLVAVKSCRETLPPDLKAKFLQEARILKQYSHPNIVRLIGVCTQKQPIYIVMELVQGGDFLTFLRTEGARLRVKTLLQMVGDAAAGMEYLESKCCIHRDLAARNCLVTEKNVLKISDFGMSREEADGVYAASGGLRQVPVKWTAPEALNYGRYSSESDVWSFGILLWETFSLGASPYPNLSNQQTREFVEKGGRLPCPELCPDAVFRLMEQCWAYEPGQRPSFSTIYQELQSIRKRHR
SH2 binding enrichment (SHP2-C SH2),SH2 binding enrichment (c-Src SH2),SH2 binding enrichment (Grb2 SH2),Sequence,phosphorylation enrichment (EPHB2),phosphorylation enrichment (Fer (mouse)),phosphorylation enrichment (EPHB1),phosphorylation enrichment (Fes),phosphorylation enrichment (Fyn),phosphorylation enrichment (Jak2),phosphorylation enrichment (AncSZ),phosphorylation enrichment (MERTK),phosphorylation enrichment (FGFR3),phosphorylation enrichment (c-Abl (mouse)),phosphorylation enrichment (FGFR1),phosphorylation enrichment (Hck),phosphorylation enrichment (c-Src)
1.65,1.38,1.72,ALKKPYSVLYK [RPF2_Y59_G60S],0.433,0.44,0.399,0.674,0.36,0.467,0.603,0.436,0.406,0.516,0.385,0.474,0.454
0.544,0.437,0.819,ALTDNYMYLVI [HAGH_Y61],8.35,3.5,9.55,1.49,0.848,2.46,1.43,3.34,6.43,0.813,8.82,1.34,1.03
0.826,0.528,0.736,AMGPVYQAAAL [HYOU1_Y421_A419P],1.25,6.15,0.933,0.611,5.43,0.615,0.657,1.03,0.435,3.43,0.502,6.53,4.05
0.563,0.733,1.07,ANNPLYKEVTS [ITGB3_Y773_A776V],0.409,0.486,0.506,0.797,0.428,0.691,0.695,0.481,0.58,0.584,0.495,0.551,0.467
0.768,0.425,0.764,APVEDYGGGGG [B4GALT6_Y382_I379V],0.552,0.409,0.503,0.882,0.496,0.62,0.822,0.418,0.641,0.481,0.473,0.452,0.392
0.799,0.902,1.39,ARAHKYHGGGG [HBB_Y146_L142R],0.273,0.28,0.246,0.443,0.312,0.379,0.384,0.276,0.371,0.474,0.324,0.302,0.312
0.888,9.04,1.34,ARLEYYENEKK [IRS1_Y47],0.506,0.491,0.686,1.01,0.595,0.849,1.08,0.571,0.733,0.808,0.592,0.482,0.528
0.707,0.535,0.889,ASFPLYEPAKM [MKI67_Y340],21.1,16.3,18.1,1.52,4.36,0.484,0.789,3.18,0.493,0.635,0.426,8.34,2.97
1.05,0.763,1,ASGKFYAMKIL [AKT3_Y174_YF],0.625,0.543,0.519,1.07,0.529,0.801,0.858,0.509,0.589,0.675,0.609,0.53,0.426
0.677,0.497,0.75,ASMAKYFASEI [ACADSB_Y372_YF],0.436,0.449,0.484,0.842,0.504,0.817,0.721,0.416,0.781,0.474,0.709,0.384,0.35
0.748,0.425,0.776,ATDLAYFLVCK [ASL_Y375_R379C_YF],0.617,0.698,0.789,1.61,0.564,2.42,1.6,0.517,1.26,1.1,1.16,0.674,0.655
1.67,1.26,0.827,ATDLAYFLVRE [ASL_Y375_K380E_YF],0.953,0.797,1.02,1.51,0.809,2.29,1.54,0.694,3.95,0.939,4.9,0.782,0.783
0.665,0.627,0.878,ATPKGYELDAS [OTC_Y223_P225L],0.551,0.465,0.442,0.903,0.478,1,0.966,0.491,0.557,0.697,0.466,0.442,0.405
1.31,1.27,1.85,AVARPYHIQKW [ACSBG1_Y677_A673V],0.358,0.332,0.381,0.584,0.391,0.461,0.643,0.362,0.506,0.573,0.468,0.402,0.401
0.545,0.329,0.65,AVLQPYIFVAT [CFTR_Y1014],0.804,0.674,0.84,1.69,0.606,1.84,1.56,0.55,1.41,0.978,1.2,0.586,0.701
0.88,0.452,0.895,AVLSLYASDRT [ACTA1_Y145_G148D],0.664,0.515,0.662,1.14,0.637,0.884,0.967,0.446,0.666,0.893,0.476,0.538,0.465
0.584,0.593,0.748,AYGNLYGSRKQ [YIPF7_Y59],0.3,0.367,0.324,0.462,1.38,0.516,0.525,0.502,0.481,0.442,0.484,6.04,2.08
